Reference: patent publication US20250333523A1 (Alector, published 2025)
Changes are numbered by the printed parent chain.

B1: anti-IL-18BP antibody variant BP-04.15 (antibody, V domains shown)
VH: QVQLVQSGAEVKKPGASVKVSCKASGYTFTDYDMHWVRQAPGQGLEWMGIISTYYGDVSYAQKFQGRVTMTRDKSTSTVYMELSSLRSEDTAVYYCARSGTYNYGTRESHPLDYWGQGTLVTVSS
VL: DIQMTQSPSSVSASVGDRVTITCRASDNVYSNLAWYQQKPGKAPKLLIYGAISLADGVPSRFSGSGSGTDFTLTISSLQPEDFATYYCQHFWGNPYTFGQGTKLEIK
B2: anti-IL-18BP antibody variant BP-04.25 (antibody, V domains shown)
VH: B1 VH with I51Y, P111A
VL: B1 VL
B3: anti-IL-18BP antibody variant BP-04.28 (antibody, V domains shown)
VH: B1 VH with N103Y
VL: B1 VL
B4: anti-IL-18BP antibody variant BP-04.29 (antibody, V domains shown)
VH: B1 VH with P111A
VL: B1 VL

How the values were obtained:
[1] = biological target: T1, His/Avi-CynoIL18BP (recombinant cynomolgus IL-18BP with His and Avi tags) (cynomolgus monkey); test: SPR Biacore T200, IgG captured on Protein A/G
T1 construct: also called cynomolgus IL-18BP-Avi-His
T1 chain: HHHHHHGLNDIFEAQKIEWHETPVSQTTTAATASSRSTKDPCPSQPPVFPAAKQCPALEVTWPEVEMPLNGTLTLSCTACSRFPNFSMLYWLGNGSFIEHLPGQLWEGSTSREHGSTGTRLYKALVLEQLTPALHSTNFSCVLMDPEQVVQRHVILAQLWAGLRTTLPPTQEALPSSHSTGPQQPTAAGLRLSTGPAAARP

[2] = biological target: T2, Avi/His-HuIL18BPa (recombinant human IL-18BP isoform A with Avi and poly-His tags) (human, biotinylated with BirA on the Avi tag in some assays); test: SPR Biacore T200, IgG captured on Protein A/G
T2 construct: also called human IL-18BP-Avi-His
T2 chain: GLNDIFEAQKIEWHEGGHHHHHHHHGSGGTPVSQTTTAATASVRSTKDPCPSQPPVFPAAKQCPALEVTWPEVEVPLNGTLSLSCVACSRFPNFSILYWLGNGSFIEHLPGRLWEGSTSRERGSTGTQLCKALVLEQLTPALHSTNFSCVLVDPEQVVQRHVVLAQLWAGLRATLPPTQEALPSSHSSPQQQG

[3] = biological target: T3, Avi/HisMsIL18BPd (recombinant mouse IL-18BP with Avi and poly-His tags) (mouse, biotinylated with BirA on the Avi tag in some assays); test: cell-based or functional assay
T3 chain: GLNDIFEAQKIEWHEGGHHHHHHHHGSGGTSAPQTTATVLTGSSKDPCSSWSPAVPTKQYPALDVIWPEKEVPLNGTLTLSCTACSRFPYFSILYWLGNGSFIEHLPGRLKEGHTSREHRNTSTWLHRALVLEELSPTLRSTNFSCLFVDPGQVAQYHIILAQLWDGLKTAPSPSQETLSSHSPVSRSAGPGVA

[4] = biological target: T2, Avi/His-HuIL18BPa (recombinant human …); test: cell-based or functional assay

| Binder | Kd [1] [nM] | koff [1] [s⁻¹] | kon [1] [M⁻¹ s⁻¹] | Kd [2] [nM] | koff [2] [s⁻¹] | kon [2] [M⁻¹ s⁻¹] | EC50 of IFNγ release, mouse splenocytes [3] [nM] | EC50 of IFNγ release, human PBMCs [4] [nM] |
| --- | --- | --- | --- | --- | --- | --- | --- | --- |
| B1 | 20 | 0.004 | 200000 | 12 | 0.0028 | 240000 | 43.1 | 12.3 |
| B2 | 100 | 0.022 | 220000 | 21 | 0.0061 | 300000 | 28.9 | 5.05 |
| B3 | 7.2 | 0.0023 | 330000 | 4.7 | 0.0019 | 410000 | 134 | 71.2 |
| B4 | 32 | 0.011 | 340000 | 16 | 0.0062 | 390000 | 45.5 | 3.53 |
